Reference: patent US10245299B2, “Autoassembling peptides for the treatment of pulmonary bulla” (3-D MATRIX, LTD., priority 2014, dated 2019)
Where no end group is shown, it is not given here.

Assays:
Format in all cases: physicochemical
[1] = Gelation of peptide solutions after saline buffer treatment, time sweep; conditions: saline buffer (0.15 M of NaCl); IEIK13 1.5%, KLD12 1.5%, PuraMatrix® 2.5% solution
Description: The effect of salt ionic strength level surrounding peptide solution on the properties of peptide solutions was evaluated to identify the possibility of peptide gelation when the peptide solution is placed into the environment where salt ionic strength level is high. […] Without pH effect, the effect of saline treatment on gelation of peptide solutions were evaluated. […] This is because IEIK13 is much more sensitive to salt ionic strength levels. Fast gelation of IEIK13 at the salt ionic strength level similar to body fluid isotonic salt level may generally improve its function and gelation speed for various clinical applications. The results are shown in FIG. 19 for IEIK13, KLD12 and PuraMatrix® solutions. Time sweep tests were performed at 1 rad/sec and at 1 Pa with 20 mm plates and 500 μm gap distance. […]

[2] = Appearance of 1.5% peptide solutions with various salts at room temperature; conditions: for Appearance: KLD12 solution, room temperature
Description: The effect of salt ionic strength level on the properties of peptide solutions was evaluated to identify optimized salt ionic strength levels for the peptides as described herein. Increasing the salt ionic strength level of PuraMatrix® and other peptides may generally improve its function and mechanical strength for various clinical applications. To adjust the salt ionic strength of the peptide solutions by way of example, various salt buffer solutions including NaCl, KCl, MgCl2, CaCl2 and DPBS (10×) were added to 2 mL of 1.5% peptide solutions.

[3] = pH and appearance of 2.5% peptide solutions after adding 0.1 N NaOH
Description: To adjust the pH level of the peptide solutions by way of example, 0.1 N NaOH was added to 2 mL of 2.5% peptide solutions and their pH and appearance were measured.

[4] = Rheological properties of pH adjusted peptide solutions and hydrogels; conditions: KLD12 1%, IEIK13 1%, PuraMatrix® 1% and 2.5%
Description: Based on the visual observation of the effect of pH level on the properties of the peptide solutions, the effect on the rheological properties of the peptide solutions after adjusting their pH level to 3.4 (PuraMatrix® and KLD12) or 3.7 (IEIK13) was evaluated. If the pH levels of peptide solutions are higher than 3.5 (PuraMatrix® and KLD12) or 3.7 (IEIK13), the peptide solution began phase separation becoming cloudy. The rheological properties of PuraMatrix®, KLD12 and IEIK13 solutions were higher at pH 3.4. The results are shown in FIG. 2 for KLD12 1%, FIG. 3 for IEIK13 1%, and FIGS. 4-5 for PuraMatrix® 1% and 2.5%, respectively. Stress sweep tests were performed at 10 rad/s. Frequency sweep tests were performed at 1 Pa.
Based on the results of the effect on the rheological properties of the peptide solutions after adjusting their pH level to 3.4 (PuraMatrix® and KLD12) or 3.7 (IEIK13), the effect on the rheological properties of the peptide solutions at various pH levels was evaluated. […] The rheological properties of peptides were evaluated at various concentrations using a rheometer (DHR-1, TA Instruments) with 20 mm plates. The results are shown in FIG. 6A for PuraMatrix® 2.5% solution and FIG. 6B for IEIK13 1.5% solution, respectively. Frequency sweep tests were performed from 1 rad/sec to 10 rad/sec at 1 Pa and the storage modulus at 1 rad/sec was selected for data.
Based on the results of the effect on the rheological properties of the peptide solutions after adjusting their pH level, the effect on the rheological properties of the peptide hydrogels at various pH after DMEM treatment was evaluated and compared to the effect on the rheological properties of the peptide solutions at various pH before DMEM treatment. […] The results are shown in FIGS. 7A-7B for PuraMatrix® and FIGS. 8A-8B for IEIK (SEQ ID NO: 5), respectively. Frequency sweep tests were performed from 1 rad/sec to 10 rad/sec at 1 Pa and the storage modulus at 1 rad/sec was selected for data.

KLDLKLDLKLDL [KLD12]
gelation after saline buffer treatment [1]: no or negligible gelation | Appearance ([2]; conc. 1.3%, KCl 0.4 M, ionic strength 0.4 M): Cloudy, phase-separated | Appearance ([2]; conc. 1.3%, NaCl 0.4 M, ionic strength 0.4 M): Cloudy, phase-separated | Appearance ([2]; conc. 1.32%, KCl 0.35 M, ionic strength 0.35 M): Slightly cloudy, brittle gel | Appearance ([2]; conc. 1.32%, NaCl 0.35 M, ionic strength 0.35 M): Slightly cloudy, brittle gel | Appearance ([2]; conc. 1.35%, KCl 0.3 M, ionic strength 0.3 M): Slightly cloudy, thick, stiffer gel | Appearance ([2]; conc. 1.35%, NaCl 0.3 M, ionic strength 0.3 M): Slightly cloudy, thick, stiffer gel | Appearance ([2]; conc. 1.38%, KCl 0.25 M, ionic strength 0.25 M): Clear, thick, stiffer gel | Appearance ([2]; conc. 1.38%, NaCl 0.25 M, ionic strength 0.25 M): Clear, thick, stiffer gel | Appearance ([2]; conc. 1.4%, KCl 0.2 M, ionic strength 0.2 M): Clear, thick, stiffer gel | Appearance ([2]; conc. 1.4%, NaCl 0.2 M, ionic strength 0.2 M): Clear, thick, stiffer gel | Appearance ([2]; conc. 1.42%, CaCl2 0.167 M, ionic strength 0.5 M): Cloudy, phase-separated | Appearance ([2]; conc. 1.42%, MgCl2 0.167 M, ionic strength 0.5 M): Cloudy, phase-separated | Appearance ([2]; conc. 1.43%, CaCl2 0.133 M, ionic strength 0.4 M): Slightly cloudy, thick, stiffer gel | Appearance ([2]; conc. 1.43%, CaCl2 0.15 M, ionic strength 0.45 M): Slightly cloudy, brittle gel | Appearance ([2]; conc. 1.43%, KCl 0.15 M, ionic strength 0.15 M): Clear, thick, stiffer gel | Appearance ([2]; conc. 1.43%, MgCl2 0.133 M, ionic strength 0.4 M): Slightly cloudy, thick, stiffer gel | Appearance ([2]; conc. 1.43%, MgCl2 0.15 M, ionic strength 0.45 M): Slightly cloudy, brittle gel | Appearance ([2]; conc. 1.43%, NaCl 0.15 M, ionic strength 0.15 M): Clear, thick, stiffer gel | Appearance ([2]; conc. 1.44%, CaCl2 0.117 M, ionic strength 0.35 M): Clear, thick, stiffer gel | Appearance ([2]; conc. 1.44%, MgCl2 0.117 M, ionic strength 0.35 M): Clear, thick, stiffer gel | Appearance ([2]; conc. 1.45%, CaCl2 0.1 M, ionic strength 0.3 M): Clear, thick, stiffer gel | Appearance ([2]; conc. 1.45%, KCl 0.1 M, ionic strength 0.1 M): Clear, thick, stiffer gel | Appearance ([2]; conc. 1.45%, MgCl2 0.1 M, ionic strength 0.3 M): Clear, thick, stiffer gel | Appearance ([2]; conc. 1.45%, NaCl 0.1 M, ionic strength 0.1 M): Clear, thick, stiffer gel | Appearance ([2]; conc. 1.46%, CaCl2 0.083 M, ionic strength 0.25 M): Clear, thick, stiffer gel | Appearance ([2]; conc. 1.46%, MgCl2 0.083 M, ionic strength 0.25 M): Clear, thick, stiffer gel | Appearance ([2]; conc. 1.47%, CaCl2 0.067 M, ionic strength 0.2 M): Clear, thick, stiffer gel | Appearance ([2]; conc. 1.47%, MgCl2 0.067 M, ionic strength 0.2 M): Clear, thick, stiffer gel | Appearance ([2]; conc. 1.48%, CaCl2 0.05 M, ionic strength 0.15 M): Clear, thick, stiffer gel | Appearance ([2]; conc. 1.48%, KCl 0.05 M, ionic strength 0.5 M): Clear, thick, stiffer gel | Appearance ([2]; conc. 1.48%, MgCl2 0.05 M, ionic strength 0.15 M): Clear, thick, stiffer gel | Appearance ([2]; conc. 1.48%, NaCl 0.05 M, ionic strength 0.5 M): Clear, thick, stiffer gel | Appearance ([2]; conc. 1.5%, CaCl2 0 M, ionic strength 0 M): Clear, thick gel | Appearance ([2]; conc. 1.5%, KCl 0 M, ionic strength 0 M): Clear, thick gel | Appearance ([2]; conc. 1.5%, MgCl2 0 M, ionic strength 0 M): Clear, thick gel | Appearance ([2]; conc. 1.5%, NaCl 0 M, ionic strength 0 M): Clear, thick gel | salt ionic strength increase that did not change the clear color of the solution (apparent stiffness increased) ([2]; depending on different salts, 1.5% peptide solutions): 0.25˜0.35 M | Appearance ([3]; 0.1N NaOH 0 μL/mL, conc. 2.5%, pH 2.1): Clear, thick gel | Appearance ([3]; 0.1N NaOH 50 μL/mL, conc. 2.38%, pH 2.4): Clear, thick gel | Appearance ([3]; 0.1N NaOH 100 μL/mL, conc. 2.27%, pH 2.6): Clear, thick gel | Appearance ([3]; 0.1N NaOH 250 μL/mL, conc. 2.0%, pH 4.0): Slightly cloudy, | Appearance ([3]; 0.1N NaOH 300 μL/mL, conc. 1.92%, pH 4.7): Cloudy, brittle gel | Appearance ([3]; 0.1N NaOH 350 μL/mL, conc. 1.85%, pH 5.2): Cloudy, phase- | Peptide solution pH ([3]; 0.1N NaOH added in 2.5% solution 0 μL/mL, conc. 2.5%): 2.1 | Peptide solution pH ([3]; 0.1N NaOH added in 2.5% solution 50 μL/mL, conc. 2.38%): 2.4 | Peptide solution pH ([3]; 0.1N NaOH added in 2.5% solution 100 μL/mL, conc. 2.27%): 2.6 | Peptide solution pH ([3]; 0.1N NaOH added in 2.5% solution 150 μL/mL, conc. 2.17%): 2.9 | Peptide solution pH ([3]; 0.1N NaOH added in 2.5% solution 200 μL/mL, conc. 2.08%): 3.3 | Peptide solution pH ([3]; 0.1N NaOH added in 2.5% solution 225 μL/mL, conc. 2.04%): 3.6 | Peptide solution pH ([3]; 0.1N NaOH added in 2.5% solution 250 μL/mL, conc. 2.0%): 4.0 | Peptide solution pH ([3]; 0.1N NaOH added in 2.5% solution 300 μL/mL, conc. 1.92%): 4.7 | Peptide solution pH ([3]; 0.1N NaOH added in 2.5% solution 350 μL/mL, conc. 1.85%): 5.2 | Appearance ([3]; pH 7.0): Cloudy, phase- | rheological properties of solutions at pH 3.4 [4]: higher
